Test results published in the supplement of paper PMC12764529.
± gives the half width of the 95% confidence interval.

Key:
[1] = folding stability dG unfold from trypsin proteolysis; higher = more stable
How it was run: (§1)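 Unfolding free energy was derived, per protease or combined, by relating Bayesian-fitted K50 values from sequencing counts to a sequence-predicted unfolded-state K50 and a shared folded-state K50. The underlying digests exposed cysteine-free mini-proteins under 80 residues, in a PA-tagged cDNA display construct, to trypsin and chymotrypsin at 11 threefold-diluted concentrations and to a no-protease condition. A filter kept only designs with AlphaFold2 dimer inter-PAE above 15.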

[2] = folding stability dG unfold from chymotrypsin proteolysis; higher = more stable
How it was run: as §1

[3] = folding stability dG unfold (combined trypsin and chymotrypsin); higher = more stable
How it was run: as §1

Row | Sequence | folding stability dG unfold [1] | folding stability dG unfold [2] | folding stability dG unfold [3]
1 | SAGGSAGGSKPEYVLRVKIYNEETGELVEEIEITVKSKEEALKALKKLLPKDNVKIEVEILPPSAGGSAGGS [r12_578_TrROS_Hall] | 3.34 ± 0.11 kcal/mol | 3.09 ± 0.25 kcal/mol | 3.2 ± 0.17 kcal/mol
2 | SAGGSAGGSKPIVAPVSVEDLTLEGLKALVDSHPEGEVPIFVTRSDGKPLVITVLPDGELSLDSAGGSAGGS [r12_1054_TrMRF] | 0.17 ± 0.019 kcal/mol | -1.49 ± 0.31 kcal/mol | -0.318 ± 0.076 kcal/mol
3 | SAGGSAGGSKPKEIETVTLKLTLKDPETGEEIEVTVELTRVRVDGKEYLILRVTDPDGKEIELSAGGSAGGS [r12_283_TrROS_Hall] | 3.13 ± 0.12 kcal/mol | 4.115 ± 0.039 kcal/mol | 3.81 ± 0.09 kcal/mol
4 | SAGGSAGGSKPNEIKIKKIKIEVKIKKKKVDKEKGEEIYEIEEVKIEIEEITLSKEELEKLLKSAGGSAGGS [r12_723_TrROS_Hall] | 1.54 ± 0.097 kcal/mol | 2.06 ± 0.088 kcal/mol | 1.94 ± 0.12 kcal/mol
5 | SAGGSAGGSKPVLVKVERKEVEVPLPDGTPGKVFVVKVTVLGENEPLAEKTYLFASEEEAKESSAGGSAGGS [r12_461_TrMRF] | 0.102 ± 0.076 kcal/mol | 0.761 ± 0.17 kcal/mol | 0.595 ± 0.13 kcal/mol
6 | SAGGSAGGSKSKKYIEIDFSNLTEIKFNPNTNYATAIFKDKGKIYIAKIHFLPNGKAIAEVFDSAGGSAGGS [r12_839_TrMRF] | 1.67 ± 0.054 kcal/mol | 2.931 ± 0.025 kcal/mol | 2.68 ± 0.077 kcal/mol
7 | SAGGSAGGSKSYEIKEITFDPENNTITIVLVAPDGKIVRTETFKPGEEVVFTFENGEKVTVKASAGGSAGGS [r12_441_TrMRF] | 1.99 ± 0.059 kcal/mol | 2.828 ± 0.008 kcal/mol | 2.54 ± 0.05 kcal/mol
8 | SAGGSAGGSKTVTLTLTLPGKKITFTLTEDGTVRMTVYNEKTGEKVKEITVPAKNLEELLKALSAGGSAGGS [r20_129_TrROS_Hall] | 3.02 ± 0.085 kcal/mol | 4.63 ± 0.064 kcal/mol | 4.29 ± 0.066 kcal/mol
9 | SAGGSAGGSKVLIIEPEENKELAEKIAKELKEKGELGEVEIKTFSSPEEAKEYAKNYDIVITGSAGGSAGGS [r12_679_TrMRF] | -0.0715 ± 0.22 kcal/mol | 0.528 ± 0.17 kcal/mol | 0.302 ± 0.14 kcal/mol
10 | SAGGSAGGSLDPGEEVKIEITDWHPPNGYYRIKIEFPNGPPIDIWMPPDDPQQMKEQAKDLIKSAGGSAGGS [r20_167_TrROS] | -0.725 ± 0.46 kcal/mol | 0.372 ± 0.36 kcal/mol | 0.107 ± 0.23 kcal/mol
11 | SAGGSAGGSLEKIKEALKKAGYPPENVVIEVKTLPNGEIVITVKYNGKEIPKEIVEEAIKKLKSAGGSAGGS [r12_175_JUSTAS] | 2.69 ± 0.081 kcal/mol | 3.72 ± 0.08 kcal/mol | 3.45 ± 0.066 kcal/mol
12 | SAGGSAGGSLHPSQPLLVTVEVEVDPETGTVRLRVSVWVPGPRERLLERELEVPLHSLPEGALSAGGSAGGS [r12_145_TrMRF] | 1.69 ± 0.039 kcal/mol | 2.49 ± 0.015 kcal/mol | 2.25 ± 0.091 kcal/mol
13 | SAGGSAGGSLKKGEKVKLRARIYEPGGGKLLAELEIEADVGKAEEIAEELRKAFPGYEVEIELSAGGSAGGS [r12_21_TrMRF] | 2.67 ± 0.036 kcal/mol | 3.24 ± 0.057 kcal/mol | 3.04 ± 0.07 kcal/mol
14 | SAGGSAGGSLNPEKPSVRIRIKVQKPDGSYEEIDIEVPFQDIPDVIDELKKKGYKILSIELEPSAGGSAGGS [r12_986_TrMRF] | 4.45 ± 0.18 kcal/mol | 4.31 ± 0.08 kcal/mol | 4.37 ± 0.18 kcal/mol
15 | SAGGSAGGSLSDLPPGVELIAVGDDVVAVRRPDGSVLVFVRERDRVFVRELSPDVSIEEALADSAGGSAGGS [r12_605_TrMRF] | 1.32 ± 0.029 kcal/mol | 1.52 ± 0.068 kcal/mol | 1.44 ± 0.057 kcal/mol
16 | SAGGSAGGSLSLPEGFKLSSLVSVEELPGVLRIYFLDPEKPLLYEVVYDLETGEQTVERIPIGSAGGSAGGS [r12_206_JUSTAS] | 2.43 ± 0.065 kcal/mol | 2.6 ± 0.051 kcal/mol | 2.5 ± 0.072 kcal/mol
17 | SAGGSAGGSLTIRFPEELSPEEAVELAEGLVRELFPEDVPVTVTVVFYDPETGEELTIPAELASAGGSAGGS [r12_1051_TrMRF] | 1.49 ± 0.039 kcal/mol | 1.35 ± 0.025 kcal/mol | 1.43 ± 0.044 kcal/mol
